{"source": "the nanobody polyreactivity screen of Harvey et al. (2022)", "data": [{"assay": "yeast display, Sf9 membrane polyspecificity reagent, FACS + sequencing; frameworks hold sequencing errors", "method_in_brief": "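Galactose induction of a Saccharomyces cerevisiae BJ5465 synthetic nanobody display library ran 36–48 hours. The cells were then stained for 1 hour at 4 °C with 10% biotinylated, detergent-solubilized Sf9 membrane reagent, pulled down on streptavidin microbeads and FACS-sorted into low and high (top ~1%) gates on expression and reagent-binding fluorescence. Labels for polyreactivity follow the gate of origin.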", "values": [{"sequence": "QVQLVESGGGLVQAGGSLRLSCAASGSIFDRYAMGWYRQAPGKERELVASISNRGGRTFYADSVKGRFTISRDNAKNTVYLQMNSLKPEDTAVYYCARKTYYTGDFLGREYGYWGQGTQVTVSS", "polyreactivity (PSR sort gate)": "low polyreactivity"}, {"sequence": "QVQLVESGGGLVQAGGSLRLSCAASGSIFDSKAMGWYRQAPGKERELVAAISQGGDDTYYADSVKGRFTISRDNAKNTVYLQMNSLKPEDTAVYYCAAEFFYITGAYDYWGQGTQVTVSS", "polyreactivity (PSR sort gate)": "low polyreactivity"}, {"sequence": "QVQLVESGGGLVQAGGSLRLSCAASGSIFDSNAMGWYRQAPGKERELVADIRGIGGSTYYADSVKGRFTISRDHAKNTVYLQMNSLKPEDTAVYYCNTSTLGGYYWGQGTQVTVSS", "polyreactivity (PSR sort gate)": "low polyreactivity"}, {"sequence": "QVQLVESGGGLVQAGGSLRLSCAASGSIFDSYAMGWYRQAPGKERELVASISSDGGGTYYADSVKGRFTISRDNAKNTVYLQMNSLKPEDTAVYYCARTRTYNSRTMDYWGQGTQVTVSS", "polyreactivity (PSR sort gate)": "low polyreactivity"}, {"sequence": "QVQLVESGGGLVQAGGSLRLSCAASGSIFDSYANGWSRQAPGKERELVAAISSRGGRTYYADSVKGRFTISRDNAKNTVYLQMNSLKPEDTAVYYCAAGLYRYYWYGFDYWGQGTQVTVSS", "polyreactivity (PSR sort gate)": "high polyreactivity"}, {"sequence": "QVQLVESGGGLVQAGGSLRLSCAASGSIFDTYAMGCYRPAPGKERELVAAICWSDTSTYADSVKGRFTISRDNAKNTVYLQMNSMKTEDTAVSYCAADFYYYSYYEYVYWGQGTLVTVSS", "polyreactivity (PSR sort gate)": "low polyreactivity"}, {"sequence": "QVQLVESGGGLVQAGGSLRLSCAASGSIFDTYAMGWYRQAPGKERELVAAITWSGSSTYYADSVKGRFTISRDNAKNTVSLQMNRLKPEDTAVYYCAKRQYLYTSKYDYWGQGTQVTVSS", "polyreactivity (PSR sort gate)": "high polyreactivity"}, {"sequence": "QVQLVESGGGLVQAGGSLRLSCAASGSIFDVNAMGWYRQAPGKERELVAGISWSGGSTYYADSVKGRFTISRDNAKNTVYLQMNSLKPEDTAVYYCNAEGPIYFYFYRGMDYWGQGTQVTVSS", "polyreactivity (PSR sort gate)": "low polyreactivity"}, {"sequence": "QVQLVESGGGLVQAGGSLRLSCAASGSIFDVYAMGWYRQAPGKERELVAAITGGGSTYYADSVKGRFTISRDNAKNSVYLQMNSLKPEDTAVYYCNADRRRRSGGFAGWHFQRNEYWGHGTQVTVSS", "polyreactivity (PSR sort gate)": "low polyreactivity"}, {"sequence": "QVQLVESGGGLVQAGGSLRLSCAASGSIFDVYGMGWYRQAPGKEREFVADITSRGTRTYYADSVKGRFTISRDNAKNTVYLQMNSLKPEDTAVYYCNADRYTAVRAYDYWGQGTQVTVSS", "polyreactivity (PSR sort gate)": "low polyreactivity"}, {"sequence": "QVQLVESGGGLVQAGGSLRLSCAASGSIFDWNAMGWYRQAPGKERELVAAISGTGGTKYADSVKGRFTISRDNAKNTVYLQMNSLKPEDTAVYYCAVGLVPLRDGWHFYYEFDSWGQGTQVTVSS", "polyreactivity (PSR sort gate)": "low polyreactivity"}, {"sequence": "QVQLVESGGGLVQAGGSLRLSCAASGSIFDWYVMGWYRQARGKERELVAAITSTGSTYYADSVKGRFTISRDNAKNTVYLQMNSLKPEDTAVYYCAAQRYSTFTYDYWGQGTQVTVSS", "polyreactivity (PSR sort gate)": "low polyreactivity"}, {"sequence": "QVQLVESGGGLVQAGGSLRLSCAASGSIFDYNAMGWYRQAPGKERELVAGITFIGGSTYYADSVKGRFTISRDNAKNTVYLQMNSLKPEDTAVYYCNADVAPGIFYGYESWGQGTQVSVSS", "polyreactivity (PSR sort gate)": "low polyreactivity"}, {"sequence": "QVQLVESGGGLVQAGGSLRLSCAASGSIFDYNTMGWYRQAPGKERELVATISWSGDSTYYADSVKGRFTISRDNAKNTVYLQMNSLKPEDTAVYYCAKTAPPERYSAWRYSWGQGTQVTVSS", "polyreactivity (PSR sort gate)": "low polyreactivity"}, {"sequence": "QVQLVESGGGLVQAGGSLRLSCAASGSIFDYNTMGWYRQAPGKVRELVAVISGTGGSTYYADSVKGRFTISRVNAKNTVYVQLNSMKPEDTAVYYCAAEGYYSNYHYWGQGTQVTVSS", "polyreactivity (PSR sort gate)": "low polyreactivity"}, {"sequence": "QVQLVESGGGLVQAGGSLRLSCAASGSIFDYYAMGWYRQAPGKETELVAAITYGGGSTYYADSVKGRFTISRDNAKNTVYLQMNSLKPEDTAVYYCNALGENYQFNYWGQGTQVTVSS", "polyreactivity (PSR sort gate)": "low polyreactivity"}, {"sequence": "QVQLVESGGGLVQAGGSLRLSCAASGSIFDYYTMGCYRQAAGKERELVATIRSGDSTNYADSLKGRFTISRDIEMNRVYLQMNSLKPEDTAVYYCAAVDGAYPTLYDYWGQGTQVTVSS", "polyreactivity (PSR sort gate)": "low polyreactivity"}, {"sequence": "QVQLVESGGGLVQAGGSLRLSCAASGSIFDYYVMGWYRQAPGKERELVAAISWSGASTYYADSVKGRFTISRDNAKNTVYLHMNSLKPEDTAVYYCAADYGVNTLIDYDYWGQGTQVTVSS", "polyreactivity (PSR sort gate)": "low polyreactivity"}, {"sequence": "QVQLVESGGGLVQAGGSLRLSCAASGSIFEDNVMGWYRQAPGKEREFVADITAIGGSTYYADSVKGRFTISRDNAKNTVYLQMNSLKPEDTAVDYCAAGFYVDYQLYEYWGQGTQVTVSS", "polyreactivity (PSR sort gate)": "high polyreactivity"}, {"sequence": "QVQLVESGGGLVQAGGSLRLSCAASGSIFEEYAMGWYRHAPGKERELVARIDESGGSTYYADSVKGRFTISRDNAKNTVYLQMNSLKPEDTAVYYCAAERYSDSWGYYSVDEGSWEMDYWGQGTQVTVSS", "polyreactivity (PSR sort gate)": "low polyreactivity"}, {"sequence": "QVQLVESGGGLVQAGGSLRLSCAASGSIFEFYTMGWYRQAPGKERELVAAITASGGSTYYADSVKGRFTISRDNAKNTVYLQMNSLKPEDTAVYYCAARFRKQSKTPSPRRYDSWGQGTQVTVSS", "polyreactivity (PSR sort gate)": "high polyreactivity"}, {"sequence": "QVQLVESGGGLVQAGGSLRLSCAASGSIFEGNARGWYRQAPGKERELVAAISTTGGITYYADAVKGRFTISRANAKNTVDLQKNSLKPEDTAVDYCAADPSQPRNDSSNYDYWGQGTQVTVSS", "polyreactivity (PSR sort gate)": "low polyreactivity"}, {"sequence": "QVQLVESGGGLVQAGGSLRLSCAASGSIFEINAMGWYRQAPGKERELVAAITQSGGITYYADSVKGRFTISRDNAKNTVYLQINSLKPEDTAVYYCNTPLLKRTTRGRERNYWGQGTQVTVSS", "polyreactivity (PSR sort gate)": "low polyreactivity"}, {"sequence": "QVQLVESGGGLVQAGGSLRLSCAASGSIFEIYAMGWYRQAPGKERELVASITWSGGSTYYADSVKGRFTISRDNAKNTVYLQMNSRKPEDTAVYYCATDKLYGRTVRMDYWGQGTQVTVSS", "polyreactivity (PSR sort gate)": "low polyreactivity"}, {"sequence": "QVQLVESGGGLVQAGGSLRLSCAASGSIFEPNAMGWYRQAPGKERELVAAISWNDGDTYYADSVKGRFTISRDNAKNTVYLQMNSLKPVDTAVYYCAAETGYAFDYWGQGTQVTVSS", "polyreactivity (PSR sort gate)": "low polyreactivity"}, {"sequence": "QVQLVESGGGLVQAGGSLRLSCAASGSIFEPYAMGWYRQAPGKERELVAAISSDGTTNYADSVKGRFTISRDNAKNTVYLQMNSLKPEDTAVYYCAADVFNWGYYYWGQGTQVTVSS", "polyreactivity (PSR sort gate)": "low polyreactivity"}, {"sequence": "QVQLVESGGGLVQAGGSLRLSCAASGSIFEPYAMGWYRQAPGKERELVAGIRKSGATTYYADSVKGRFTISRDNAKNTVYLQMNSLKPEDSAVYYCNAVVKSSSRGSISHPGYDYWGQGTQVTVSS", "polyreactivity (PSR sort gate)": "high polyreactivity"}, {"sequence": "QVQLVESGGGLVQAGGSLRLSCAASGSIFEPYTMGWYRQAPGKERELVAAITGSGGSTFYADSVKGRFTISRDNAKNTVYLQMNSLKPEDTAVYYCNAYAYPYTDVDYWGQGTQVTVSS", "polyreactivity (PSR sort gate)": "low polyreactivity"}, {"sequence": "QVQLVESGGGLVQAGGSLRLSCAASGSIFESYAMGCYRQAPGKERELVAAITKRGGSTYYADSVKGRFTISRDNSKNTFYLQMNSLKPEDTAVYYCNARSPGIGPIYDYWGQGTQVTVSS", "polyreactivity (PSR sort gate)": "low polyreactivity"}, {"sequence": "QVQLVESGGGLVQAGGSLRLSCAASGSIFESYAMGWYRQAPGKERELVAAITLSGTSTYYADSVKGRFTISRDNAKNTVYLQMNSLKPEDTAVYYCNAKPIPVRGSYDYWGQGTQVTVSS", "polyreactivity (PSR sort gate)": "low polyreactivity"}, {"sequence": "QVQLVESGGGLVQAGGSLRLSCAASGSIFESYAMGWYRQAPGKEWELVASISGGGSTYYADSVKGRFTISRDNAKNTVYLQMNSLKPEDTAVYYCATVYVRYRQSRLIRYGYWVQGTQVTVSS", "polyreactivity (PSR sort gate)": "high polyreactivity"}, {"sequence": "QVQLVESGGGLVQAGGSLRLSCAASGSIFETNAMGWYRQAPGKERELVAAITGSGGSTYYADSVKGRFTISRDNAKNTVYLQMNSLIPVDTEVYYCAADSSGQSRFGYWGQGTQVTVSS", "polyreactivity (PSR sort gate)": "low polyreactivity"}, {"sequence": "QVQLVESGGGLVQAGGSLRLSCAASGSIFETYAMGWYRQAPGKEWELVAAISRTSGRTYYADSVKGRFTISRDNAKNTVYLQMNSLKPDDTAVYYCAAVVRNPGTYDYWGHGTQVTVSS", "polyreactivity (PSR sort gate)": "high polyreactivity"}, {"sequence": "QVQLVESGGGLVQAGGSLRLSCAASGSIFEVYAMGWYRQAPVKERELVAAIDYSDGTTYYADSVKGRFTISRDNAKNTVYFQMNSLKPEDTAVYYCAADFPGQHYDYWGQGTQVTVSS", "polyreactivity (PSR sort gate)": "low polyreactivity"}, {"sequence": "QVQLVESGGGLVQAGGSLRLSCAASGSIFEWYAMGWYRQAPGKERELVAAISSSGTSTYYADSVKGRFTISRDNAKNTVYLQMNSLKPEDTAVYYCNTDLSRLSQHDYWGQGTQVTVSS", "polyreactivity (PSR sort gate)": "low polyreactivity"}, {"sequence": "QVQLVESGGGLVQAGGSLRLSCAASGSIFEWYAMGWYRQAPGKERELVADISSVGSTYYADSVKGRFTISRDNAKNTVYLQMNSLKPEDTAVYYCNTSYIIWYDSWGQGTQVTVSS", "polyreactivity (PSR sort gate)": "low polyreactivity"}, {"sequence": "QVQLVESGGGLVQAGGSLRLSCAASGSIFEYNGMGWSRQAPGKERELVAAITTTGTTDYADSVKGRFTISRDNAKNTVYLQMNSLKPEDTAVYYCAADYTYYYKGEYDYWGQGTQVTVSS", "polyreactivity (PSR sort gate)": "low polyreactivity"}, {"sequence": "QVQLVESGGGLVQAGGSLRLSCAASGSIFEYNGMGWYRQAPGKERELVAAITTTGTTDYADSVKGRFTISRDNAKNTVYLQMNSLKPEDTAVYYCAADYTYYYKGEYDYWGQGTQVTVSS", "polyreactivity (PSR sort gate)": "low polyreactivity"}, {"sequence": "QVQLVESGGGLVQAGGSLRLSCAASGSIFEYYPMGWYRQAPGKERELVAAISWSGGSTYYADSVKGRFSISRDNAKNTVYFQMNSLKPEDTAVYYCAARGYWGQGTQVTVSS", "polyreactivity (PSR sort gate)": "low polyreactivity"}, {"sequence": "QVQLVESGGGLVQAGGSLRLSCAASGSIFFAYAMGWYRQAPGKERELVAAIRSGVRTNYADSVKGRFTISRDNAKNTVYIQMNSLKPEDTAVYYCNTDLSKFGHRVSLSGYDYWGQGTQVNVSS", "polyreactivity (PSR sort gate)": "low polyreactivity"}, {"sequence": "QVQLVESGGGLVQAGGSLRLSCAASGSIFFAYDMGWYRQAPGKERELVAAINFDGTSTYYADSVKGRFTISRDNAKNTVYLQMNTLKPEDTAVYYCNKRVSPTYKGQYVYWGQGTQVTVSS", "polyreactivity (PSR sort gate)": "low polyreactivity"}, {"sequence": "QVQLVESGGGLVQAGGSLRLSCAASGSIFFAYVMGWYRQAPGKERELDAVITYSGGSTYYADSVKGRFTISRDNAKNTVYLQMNSLKPEDTAVYDCAADETSALDDYWGQGTQVTVSS", "polyreactivity (PSR sort gate)": "low polyreactivity"}, {"sequence": "QVQLVESGGGLVQAGGSLRLSCAASGSIFFDYGMGWYRQAPGKERELVATITRGTGSTYYADSVKGRFTISRDNAKNTVYLQMNSLKPEDTAVYYCAAGWHYVYRTPGFGYWGQGTQVTVSS", "polyreactivity (PSR sort gate)": "high polyreactivity"}]}]}
